Where a chain is given by its changes, count along the chain named. Numbers in names are those of the source.
B1: E35D/M47V/N48K/V68M/K89N: variant CD80 IgV-Fc, IgV SEQ ID NO:465 (protein)
chain: VIHVTKEVKEVATLSCGHNVSVEELAQTRIYWQKDKKMVLTMMSGDVKIWPEYKNRTIFDITNNLSIMILALRPSDEGTYECVVLKYENDAFKREHLAEVTLSVKAD
B2: E35G/K54E/A71D/L72P: variant CD80 IgV-Fc, IgV SEQ ID NO:219 (protein)
chain: B1 chain with D35G, V47M, K48N, K54E, M68V, A71D, L72P, N89K
B3: E35D/M47L: variant CD80 IgV-Fc, IgV SEQ ID NO:208 (protein)
chain: B1 chain with V47L, K48N, M68V, N89K
B4: E35D/M47I/L70M: variant CD80 IgV-Fc, IgV SEQ ID NO:199 (SEQ ID NO:125 in b995) (protein)
chain: B1 chain with V47I, K48N, M68V, L70M, N89K

Key:
[1] = test system: primary human pan T cells; experiment: Cytokine production following PD-L1-dependent costimulation; type: cell-based; conditions: mitomycin-c treated K562/OKT3/PDL1 aAPC; FIG. 6
[2] = molecular target: T1, PD-L1/PD-1 interaction (Homo sapiens, UniProt Q9NZQ7); experiment: PD-L1/PD-1 binding and blocking on CHO/PD-L1 cells; conditions: fluorescently conjugated PD-1-Fc; FIG. 7
T1 construct: expressed in transfected cells
T1 sequence (Q9NZQ7 19-290): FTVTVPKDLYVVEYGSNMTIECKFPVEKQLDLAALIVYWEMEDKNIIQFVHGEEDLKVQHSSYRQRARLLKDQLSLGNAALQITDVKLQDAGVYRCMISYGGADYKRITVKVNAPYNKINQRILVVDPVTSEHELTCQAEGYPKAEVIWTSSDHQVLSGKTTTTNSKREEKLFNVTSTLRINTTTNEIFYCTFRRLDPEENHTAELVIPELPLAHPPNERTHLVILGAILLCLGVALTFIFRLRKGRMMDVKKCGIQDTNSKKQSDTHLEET
Method: Binding of selected immunomodulatory fusion proteins to cells expressing PD-L1 was assessed to test for blocking of the PD-L1/PD-1 interaction. […] Samples were acquired on a flow cytometer and MFIs of the fluorescently labeled PD-1 were determined by Flowjo software analysis.
(§1) The multivalent variant CD80 IgSF domain fusion proteins were assessed to test for blocking of the PD-L1/PD-1 and CTLA-4/CD80 interaction performed substantially as described in Example 15. CHO/OKT3/PD-L1 and CHO/CTLA-4 cells were counted and plated at 100,000 cells/well and then incubated with fluorescently conjugated PD-1-Fc and CD80-Fc. Exemplary multivalent variant CD80 IgSF domain fusion proteins were incubated with the cells for 30 minutes. […] Cells were washed and incubated with 100 nM fluorescently conjugated PD-1-Fc and CD80-Fc competitor for 30 minutes. Cells were then washed and samples were acquired on a flow cytometer and MFIs of the fluorescently labeled molecules were determined.

[3] = molecular target: T2, CD28 (Homo sapiens, UniProt P10747); experiment: Flow binding to Jurkat/IL2 reporter cells (CD28); parameters: host or cells: Jurkat cells expressing an IL-2-luciferase reporter; conditions: Table E19; Jurkats (CD28); 33.3 nM
Method in brief: (§2)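 Flow cytometry on transfected CHO cells or CD28+ Jurkat/IL2 reporter cells, blocked 20 min in PBS/1% BSA/0.1% azide. Fusion protein 45 min on ice; PE anti-human Fc 1:150, 30 min on ice; fixed in 2% formaldehyde. Read-out PE MFI, EC50 calculated.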

[4] = molecular target: T2, CD28; experiment: Jurkat/IL2 + K562/OKT3/PD-L1 reporter assay; type: cell-based; parameters: host or cells: Jurkat cells expressing an IL-2-luciferase reporter
[5] = molecular target: T3, huCTLA4 (Homo sapiens, UniProt P16410); experiment: Antagonism of CD80/CTLA-4 binding on CHO cells expressing CTLA-4; parameters: Full-length mammalian surface expression constructs for each of human CTLA-4, PD-L1, and CD28; conditions: 25 nM fluorochrome-conjugated wild-type CD80-Fc; FIG. 21
T3 sequence (P16410 36-223): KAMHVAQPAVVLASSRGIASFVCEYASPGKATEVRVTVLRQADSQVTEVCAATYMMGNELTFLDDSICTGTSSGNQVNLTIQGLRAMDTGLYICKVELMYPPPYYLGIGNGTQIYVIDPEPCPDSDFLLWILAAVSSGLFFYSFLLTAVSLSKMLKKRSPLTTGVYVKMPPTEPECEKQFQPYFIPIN
Method: After washing, cells were incubated with 25 nM fluorochrome-conjugated wild-type CD80-Fc. Bound fluorescent competitor protein was detected and measured by flow cytometry.
as §1

[6] = molecular target: T3, huCTLA4; experiment: Flow binding to CHO cells stably expressing CTLA4; parameters: huCTLA4 and huPD-L1, full-length mammalian surface expression constructs were generated; expressed in transfected cells; host or cells: CHO cells, lentiviral transduction, sorted to >98% purity; conditions: Table E19; CHO cells stably expressing CTLA4; 33.3 nM
Method in brief: as §2

[7] = test system: Pan T cells; experiment: Primary T cell stimulation assay with K562/OKT3 +/- PD-L1 (IL-2, IFN-gamma, proliferation); type: cell-based, human; conditions: 1, 10, 100 nM; 72 hr
Method: IFN-gamma, IL-2 and proliferation were determined after 72 hr. incubation.

[8] = molecular target: T2, CD28; experiment: Jurkat/IL2 + CHO/OKT3 +/- PD-L1 reporter assay: PD-L1-dependent CD28 costimulation; type: cell-based; parameters: host or cells: Jurkat cells expressing an IL-2-luciferase reporter; conditions: luciferase signal; for PD-L1-Dependent CD28 Costimulation, +PD-L1, 0.6 nM / PD-L1-Dependent CD28 Costimulation, +PD-L1, 50 nM: CHO/OKT3/PD-L1 aAPC; for PD-L1-Dependent CD28 Costimulation, No PD-L1, 50 nM / PD-L1-Dependent CD28 Costimulation, No PD-L1, […]: CHO/OKT3 aAPC
Method in brief: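 Jurkat reporter cells (100,000/well) preincubated 15 min at room temperature with test protein, then cocultured 5 h at 37 °C with CHO aAPCs bearing anti-CD3 scFv (OKT3) with or without PD-L1. Luciferase luminescence (RLU) read after lysis-substrate addition.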

[9] = molecular target: T2, CD28; experiment: CD28 costimulation via Fc receptor or PD-L1 dependent cross-linking (Jurkat/IL2 + K562/OKT3 +/- PD-L1); type: cell-based; parameters: host or cells: Jurkat cells expressing an IL-2-luciferase reporter; conditions: K562/0KT3 aAPC, luciferase signal
Method: In a further experiment, CD28 costimulation was assessed for variant CD80-IgV-Fc fusion proteins, where the Fc was an IgG1 Fc (e.g. SEQ ID NO:1517) capable of mediating effector activity via binding to Fc receptors (FcR). The experiment was carried out as described in part A above, except CD32-expressing K562 cells stably transduced with OKT3 (K562/OKT3) or OKT3 and PD-L1 (K562/OKT3/PD-L1) were used instead of the CHO/OKT3 and CHO/OKT3/PD-L1 cells, and the results are depicted in Table E9.

[10] = test system: MC38 hPD-L1 tumor cells; experiment: MC38 hPD-L1 tumor model in C57BL/6 mice; type: in vivo, mouse
Method: Mouse MC38 tumor cells were stably transfected with human PD-L1 (MC38 hPD-L1) and implanted subcutaneously into C57BU6 mice. […] Tumor volume was tracked over time.
70 female C57CL/6 mice, containing similar tumor volumes of approximately 50-51 mm^3, following implantation of MC38 hPD-L1 tumor cells, were staged and divided into 5 treatment groups containing 14 mice each. […] Tumor volumes were measured on days 7, 10, and 12. On day 13, 5 animals were sacrificed for analysis as described in the sections below. Tumor measurements resumed for the remaining 9 mice for each group on days 17, 20 and 27. On days 26, 28, and 31, the animals in Group 1 (Fc isotype control) received an intratumoral injection of 100 μg E35D/M47L CD80-IgV-Fc.
95 female C57BU6 mice were implanted with MC38 hPD-L1 tumor cells. The tumors were staged on Day 7, and 77 mice with similar tumor volumes of approximately 60 mm^3 were divided into 7 treatment groups containing 11 mice each.
On day 49, tumor-free mice, from Groups 3, 4, 6, and 7, and 2 naïve C57CL/6 mice were re-challenged with an additional injection of hPD-L1 MC38 cells. Tumor volumes were measured on days 56, 59, and 63. The results are depicted in FIG. 13. […] At day 59, 8/8 mice from Group 3, 1/2 mice from Group 4, 1/1 mouse from Group 6, and 2/2 mice from Group 7 were tumor-free, and by day 63, all mice in Group 3, Group 4, Group 6, and Group 7 were tumor-free.
75 animals were staged into 3 treatment groups 7 days after implantation with hPD-L1 MC38 tumor cells. […] Tumor volumes were measured every 3-4 days, from Day 11 until Day 35. 3 days after the 1st dose, 2nd dose and 3rd dose, 4 mice from each group were sacrificed for tumor and LN analyses, leaving 13 mice for tumor volume measurements throughout the study period.

[11] = molecular target: T2, CD28; experiment: Jurkat/IL2 reporter assay: blockade of CD28 costimulation (plate-bound anti-CD3/CD86-Fc); type: cell-based; parameters: host or cells: Jurkat cells expressing an IL-2-luciferase reporter; conditions: Table E5; protein diluted to 40 nM before mixing with cells; 5 hours
Method in brief: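 Jurkat cells carrying an IL-2–luciferase reporter were preincubated 15 min at room temperature with CD80-Fc fusion molecules, then added to plates coated overnight with anti-CD3 and CD86-Fc. After 5 h at 37 °C, luciferase luminescence was read with Bio-Glo.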

[12] = molecular target: huPD-L1 (Homo sapiens, UniProt Q9NZQ7); experiment: Flow binding to CHO cells stably expressing PD-L1; parameters: huCTLA4 and huPD-L1, full-length mammalian surface expression constructs were generated; expressed in transfected cells; host or cells: CHO cells, lentiviral transduction, sorted to >98% purity; conditions: Table E19; CHO cells stably expressing PD-L1; 33.3 nM
Chain of huPD-L1 (Q9NZQ7 19-290): as the sequence (Q9NZQ7 19-290) above
Method in brief: as §2

[13] = test system: huPD-L1 transduced MC38 tumor cells; experiment: In vitro cytotoxicity to huPD-L1 transduced MC38 tumor cells; type: cell-based, mouse; conditions: 100 nM or 10 nM; 72 hours; human pan T cells 1:5; FIG. 17
Method: This Example describes the assessment of in vitro cytotoxicity of huPD-L1 transduced MC38 tumor cells. MC38 tumor cells, non-transduced or transduced with huPD-L1, were treated with Mitomycin-C and plated with human pan T cells labelled with CFSE at a 1:5 ratio. […] As a control, an exemplary anti-PD-1 antibody nivolumab or an Fc (inert) only control also were assessed. Cells were then harvested and stained with 7-AAD viability dye. After acquiring samples on a flow cytometer, the percentage of dead cells was calculated using Flowjo analysis by gating on 7-AAD+ cells in the CFSE− gate.

[14] = re-challenged on day 49 with hPD-L1 MC38 cells

Molecule | CD28 MFI at 33.3 nM [3] | CTLA4 MFI at 33.3 nM [6] | PD-L1-Dependent CD28 Costimulation, +PD-L1, 0.6 nM [8] | PD-L1-Dependent CD28 Costimulation, +PD-L1, 50 nM [8] | PD-L1-Dependent CD28 Costimulation, No PD-L1, 50 nM [8] | PD-L1-Dependent CD28 Costimulation, No PD-L1, […] [8] | CD28 costimulation, FcR Dependent Cross-Linking (No PD-L1), 0.6 nM [9] | CD28 costimulation, FcR Dependent Cross-Linking (No PD-L1), 50 nM [9] | Average Relative Luminescence Units [11] | also measured
B1 | 1348 | 20884 | – | – | – | – | – | – | – | IL-2 secretion in culture supernatants [1]: resulted in IL-2 secretion in culture supernatants; blocking of binding of PD-1 to PD-L1 [2]: antagonize or block binding of PD-1 to PD-L1; PD-L1 dependent CD28 costimulation (luciferase activity) ([4]; IgV-Fc (inert), various concentrations, FIG. 5): induced PD-L1 dependent CD28 costimulation in a dose-dependent manner; Relative Luciferase Units (RLU), CD80-Fe Cone 50 nM ([4]; Table E8, K562/OKT3/PD-L1 aAPC, 50 nM): 1439 RLU; antagonism of binding of CD80 to CTLA-4 [5]: antagonized the binding of CD80 to CTLA-4
B2 | – | – | 529 | 476 | 440 | 417 | 1337 | 1510 | – | CD28 costimulation and IL-2 production [7]: did not generate significant costimulation and IL-2 production
B3 | 411 | 48010 | – | – | – | – | 2119 | 8685 | 1110 Relative Luminescence Units | mice with no detectable tumors (tumor-free) upon completion of the study ([10]; 100 μg on days 7, 9 and 11, 11 mice per group): 1 mice; tumor growth / tumor volume ([10]; i.p. dosing, compared to Fc control or anti-PD-L1): dose-dependent decrease in tumor volumes; tumor-free mice after re-challenge, day 59 [10, 14]: 1/1; tumor-free mice after re-challenge, day 63 [10, 14]: tumor-free; PD-L1 MFI at 33.3 nM [12]: 7529
B4 | – | – | 1004 | 2629 | 600 | 549 | 1609 | 5780 | 1077 Relative Luminescence Units | cytotoxicity (percentage of dead 7-AAD+ tumor cells) [13]: increased cytotoxicity against huPD-L1 transduced MC38 tumor cells, but not non-transduced MC38 parental cells
